From article PMC12102760 (Protein Science : A Publication of the Protein Society, 2025)

Columns and labels:
[1] = biological target: T1, EphA8-Fc (Homo sapiens, UniProt P29322); assay: BLI; IgG captured on anti-human biosensors, quenched with Fc; receptor ECD-Fc in solution, three-fold dilutions from 300 nM; PBS, 1% BSA, 0.05% Tween 20; 25°C; 1:1 binding model; conditions: both partners purified
T1 construct: EphA8, human, extracellular domain

[2] = biological target: T2, EphA2-Fc (Homo sapiens, UniProt P29317); assay: as above; conditions: both partners purified
T2 construct: EphA2, human, extracellular domain; Eph ECDs used for the phage selections were from R&D; also called EphA2 ECD

[3] = biological target: T3, EphA4-Fc (Homo sapiens, UniProt P54764); assay: as above; conditions: both partners purified
T3 construct: EphA4, human, extracellular domain

[4] = biological target: the molecule itself; assay: crystal structure; Fab^S1CEL1 with EphA2 LBD-CRD, 4.6 Å; 16% PEG 8000, 100 mM CHES pH 9.0, 200 mM magnesium sulfate; one Fab and two LBD-CRD in the asymmetric unit
[5] = biological target: T4, EphA2 extracellular domain (ECD) (human, UniProt P29317); assay: SPR; EphA2 ECD immobilised by amine coupling on GLC chip, Fabs from 100 nM in three-fold dilutions, PBS, 25°C, 1:1 Langmuir model; conditions: both partners purified
T4 construct: EphA2, human, extracellular domain (LBD, CRD, FN1, FN2); The catalogue number is printed for the SEC and the selections; also called EphA2 ECD; EphA2-His; source: bought: R&D Systems (3035-A2)
T4 sequence (P29317 24-537): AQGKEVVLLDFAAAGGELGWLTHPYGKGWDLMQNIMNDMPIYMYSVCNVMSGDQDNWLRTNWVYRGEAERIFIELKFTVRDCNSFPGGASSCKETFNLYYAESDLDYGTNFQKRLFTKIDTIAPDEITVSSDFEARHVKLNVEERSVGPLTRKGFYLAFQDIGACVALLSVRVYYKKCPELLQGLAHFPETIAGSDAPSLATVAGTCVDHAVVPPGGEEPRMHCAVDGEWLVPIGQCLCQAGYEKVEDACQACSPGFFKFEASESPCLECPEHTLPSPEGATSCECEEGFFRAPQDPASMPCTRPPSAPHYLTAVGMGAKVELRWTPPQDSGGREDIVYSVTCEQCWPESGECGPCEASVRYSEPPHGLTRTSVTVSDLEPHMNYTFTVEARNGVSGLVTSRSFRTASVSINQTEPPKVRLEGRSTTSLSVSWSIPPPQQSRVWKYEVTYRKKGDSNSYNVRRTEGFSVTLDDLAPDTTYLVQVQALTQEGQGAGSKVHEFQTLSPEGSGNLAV

T3 sequence (P54764 20-547): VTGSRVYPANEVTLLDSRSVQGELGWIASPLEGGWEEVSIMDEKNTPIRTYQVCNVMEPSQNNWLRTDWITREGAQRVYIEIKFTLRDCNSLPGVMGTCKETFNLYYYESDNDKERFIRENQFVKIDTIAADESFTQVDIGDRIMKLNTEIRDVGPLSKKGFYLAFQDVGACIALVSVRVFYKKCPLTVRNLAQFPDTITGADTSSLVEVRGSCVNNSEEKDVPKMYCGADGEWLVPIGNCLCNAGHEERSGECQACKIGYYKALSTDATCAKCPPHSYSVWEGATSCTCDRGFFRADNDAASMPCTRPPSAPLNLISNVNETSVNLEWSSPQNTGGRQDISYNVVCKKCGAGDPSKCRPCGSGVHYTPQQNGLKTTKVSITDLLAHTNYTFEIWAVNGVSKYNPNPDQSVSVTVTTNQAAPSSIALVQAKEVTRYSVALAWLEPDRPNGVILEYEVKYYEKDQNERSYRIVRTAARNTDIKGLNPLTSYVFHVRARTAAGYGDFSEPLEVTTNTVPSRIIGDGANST
T1 sequence (P29322 28-542): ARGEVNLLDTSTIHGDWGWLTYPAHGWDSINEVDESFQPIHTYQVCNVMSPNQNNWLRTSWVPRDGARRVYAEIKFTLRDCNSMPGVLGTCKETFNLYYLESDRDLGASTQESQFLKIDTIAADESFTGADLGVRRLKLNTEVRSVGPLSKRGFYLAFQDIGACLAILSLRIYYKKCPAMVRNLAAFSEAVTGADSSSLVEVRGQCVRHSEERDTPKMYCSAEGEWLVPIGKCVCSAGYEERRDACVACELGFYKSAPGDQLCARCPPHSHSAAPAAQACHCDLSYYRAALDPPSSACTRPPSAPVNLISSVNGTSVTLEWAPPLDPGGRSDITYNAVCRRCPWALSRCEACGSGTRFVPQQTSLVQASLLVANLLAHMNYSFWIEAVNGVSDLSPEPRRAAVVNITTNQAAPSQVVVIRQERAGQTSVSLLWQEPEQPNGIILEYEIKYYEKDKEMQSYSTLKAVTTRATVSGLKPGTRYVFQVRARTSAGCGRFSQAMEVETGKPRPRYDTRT
T2 sequence (P29317 24-537): as the sequence (P29317 24-537) above

B1: IgG L1 (antibody, V domains shown)
VH: EVQLVESGGGLVQPGGSLRLSCAASGFTISSSYIHWVRQAPGKGLEWVASISSYYGSTSYADSVKGRFTISADTSKNTAYLQMNSLRAEDTAVYYCARSHYSVWWGWHSVSYYAAFDYWGQGTLVTVSS
VL: DIQMTQSPSSLSASVGDRVTITCRASQSVSSAVAWYQQKPGKAPKLLIYSASSLYSGVPSRFSGSRSGTDFTLTISSLQPEDFATYYCQQGSAPFTFGQGTKVEIK
notes: full-length IgG constant region not specified; as the light chain of m12; Bivalent full-length IgG; also called L1 IgG; Ab L1; source: mammalian cells, purified; copies: 2 + 2
- binding result [1]: no binding (tested: 300 nM)
- Kd [2]: 0.27 nM
- binding result [3]: no binding (tested: 300 nM)

B2: EphA2 LBD-CRD (residues 23-326) (domain or fragment, human, UniProt P29317 23-326, looked up)
chain: AAQGKEVVLLDFAAAGGELGWLTHPYGKGWDLMQNIMNDMPIYMYSVCNVMSGDQDNWLRTNWVYRGEAERIFIELKFTVRDCNSFPGGASSCKETFNLYYAESDLDYGTNFQKRLFTKIDTIAPDEITVSSDFEARHVKLNVEERSVGPLTRKGFYLAFQDIGACVALLSVRVYYKKCPELLQGLAHFPETIAGSDAPSLATVAGTCVDHAVVPPGGEEPRMHCAVDGEWLVPIGQCLCQAGYEKVEDACQACSPGFFKFEASESPCLECPEHTLPSPEGATSCECEEGFFRAPQDPASMPCT
notes: EphA2, human, LBD-CRD, residues 23-326; A thrombin cleavage site precedes the C-terminal hexahistidine tag; also called LBD-CRD1; LBD-CRD2; source: kifunensine culture, deglycosylated by endoH
- binding result [4]: binds

B3: Fab L1 (Fab, V domains shown)
VH: B1 VH
VL: B1 VL
notes: synthetic Fab from phage library F; The deposited chains carry crystallisation-enhancing framework substitutions that this Fab lacks; source: E. coli BL21, purified (Protein A)
- Kd [5]: < 1 nM

B4: Fab C1 (Fab, V domains shown)
VH: EVQLVESGGGLVQPGGSLRLSCAASGFTIYYSSMHWVRQAPGKGLEWVASISSYYGYTYYADSVKGRFTISADTSKNTAYLQMNSLRAEDTAVYYCARYYAMDYWGQGTLVTVSS
VL: DIQMTQSPSSLSASVGDRVTITCRASQSVSSAVAWYQQKPGKAPKLLIYSASSLYSGVPSRFSGSRSGTDFTLTISSLQPEDFATYYCQQYYGYGGYPITFGQGTKVEIK
notes: as for B3
- Kd [5]: < 1 nM

B5: Fab F1 (Fab, V domains shown)
VH: EVQLVESGGGLVQPGGSLRLSCAASGFDSGAYLRHWVRQAPGKGLEWVASIYPSYGYTSYADSVKGRFTISADTSKNTAYLQMNSLRAEDTAVYYCARSAASYYGYWHWYHFSPGMDYWGQGTLVTVSS
VL: DIQMTQSPSSLSASVGDRVTITCRASQSVSSAVAWYQQKPGKAPKLLIYSASDLYSGVPSRFSGSRSGTDFTLTISSLQPEDFATYYCQQYVSGGWLITFGQGTKVEIK
notes: Fab^S1F1 in PDB 8T7F (chains C and G, heavy and light chain); Optimised from the parental Fab F1′ (Enderle et al., 2021); The deposited chains carry framework substitutions that this Fab lacks; source: E. coli BL21, purified (Protein A)
- Kd [5]: < 1 nM
